Reference: patent US20140308287A1 (SEA LANE BIOTECHNOLOGIES, published 2014)
Each block holds one binder with its values, some of them ahead of it.

Assays:
[1] = target: T1, human ErbB3-Fc (R&D Systems) (human, UniProt P21860 20-643); test: ELISA on ErbB3-Fc (Example 42); format of the parent not stated, the variants were soluble monovalent Sabs
T1 construct: Bought protein; also called wild-type ErbB3-Fc fusion; immobilized ErbB3; not shown: Fc part of the bought fusion protein; not described

[2] = target: T1, human ErbB3-Fc (R&D Systems); test: ELISA on ErbB3-Fc, soluble monovalent Sab (Example 42)
[3] = target: T1, human ErbB3-Fc (R&D Systems); test: ELISA on ErbB3-Fc (Example 42); format of the parent not stated, the variants were soluble monovalent Sabs; remark: listed apart in the source
[4] = target: T2, human ErbB3 expressed on the surface of cells (BxPC-3 and other human tumor cell lines) (human, UniProt P21860 20-1342); test: flow cytometry on BxPC-3 cells
T2 construct: SKBR3, PathHunter reporter cells in functional assays; The leader 1-19 is not part of the mature protein; also called cell surface ErbB3; cell surface receptor
Experimental: (§1) Briefly, BxPC-3 cells were first dissociated using 0.25% trypsin, 0.2% EDTA, washed in cold PBS, 1% BSA, and then resuspended at 3×10⁶ cells/ml. SgGs (described above) were added at the indicated concentrations in Staining Buffer (Becton Dickinson) and incubated at 4 degrees C. for 1 hour. Next the cells were washed in stain buffer and resuspended with 1:133 diluted biotinylated goat anti-human IgG (Southern Biotech #2040-08) and incubated at 4 degrees C. for 1 hour. Cells were then washed in stain buffer and resuspended with Alexa488 conjugated streptavidin (Invitrogen #S11223) and incubated at 4 degrees C. for 1 hour. One microliter of the vital stain 7AAD (Invitrogen #A1310) was added during the last 15 minutes of incubation. Cells were washed with stain buffer and analyzed on a flow cytometer.
(§2) Thereafter only signals arising from this gated population were analyzed. Geometric mean fluorescence intensity for cells stained using the indicated concentrations of SBPs were determined using FLOWJO analysis software and EC50s were calculated using Graphpad Prism.

[5] = target: T1, human ErbB3-Fc (R&D Systems); test: ELISA, inhibition of binding of NRG1-beta 1 ECD (0.26 ug/ml) to plate-coated human ErbB3-Fc
Experimental: ELISA plates were coated with human ErbB3-Fc. Various concentrations of the indicated anti-ErbB3 SBPs were then allowed to bind to the coated wells. […] Detection used a colorimetric HRP substrate.
Data was analyzed using GraphPad Prism.

[6] = target: T3, EGFR-Fc (ErbB1) (human, UniProt P00533 25-645); test: ELISA on plate-coated EGFR-Fc (ErbB1), detection biotinylated anti-VpreB (Example 52)
T3 construct: The sentence reads 'human ErbB3-Fc, EGFR-Fc (ErbB1) or ErbB2-Fc'; 'human' is read as applying to all three; not shown: Fc part; not described
Source text: (§3) ELISA plates were coated with human ErbB3-Fc, EGFR-Fc (ErbB1) or ErbB2-Fc. Various concentrations of the indicated anti-ErbB3 SBPs were then allowed to bind to the coated wells. Binding was detected using a biotinylated antibody that specifically recognizes VpreB, followed by streptavidin HRP. Detection used a colorimetric HRP substrate.

[7] = target: T1, human ErbB3-Fc (R&D Systems); test: ELISA, SgG on plate-coated human ErbB3-Fc
Experimental: (§4) Binding was detected using a biotinylated antibody that specifically recognizes VpreB, followed by streptavidin HRP. Detection used a colorimetric HRP substrate. Data was analyzed via using GraphPad Prism.

[8] = target: T4, ErbB2-Fc (human, UniProt P04626 23-652); test: ELISA on plate-coated ErbB2-Fc, detection biotinylated anti-VpreB (Example 52)
T4 construct: The sentence reads 'human ErbB3-Fc, EGFR-Fc (ErbB1) or ErbB2-Fc'; 'human' is read as applying to all three; not shown: Fc part; not described
Source text: as §3

[9] = target: T1, human ErbB3-Fc (R&D Systems); test: ELISA on plate-coated human ErbB3-Fc without NRG, detection biotinylated anti-VpreB and streptavidin HRP (Example 43); axis labelled log [Sab] nM, text speaks of SgGs
Source text: (§5) The resulting bound SgGs were detected using a biotinylated anti-VpreB, followed by streptavidin HRP colorimetric detection.

[10] = target: T1, human ErbB3-Fc (R&D Systems); test: ELISA on plate-coated human ErbB3-Fc with 1.85 nM NRG1-beta 1 extracellular domain added before the SBP (+ NRG), detection biotinylated anti-VpreB (Example 43); axis labelled log [Sab] nM
Source text: as §5

[11] = target: T2, human ErbB3 expressed on the surface of …; test: flow cytometry on BxPC-3 cells, geometric mean fluorescence intensity
Experimental: as §1, §2

[12] = target: T1, human ErbB3-Fc (R&D Systems); test: ELISA, SgG on plate-coated human ErbB3-Fc, anti-VpreB detection
Experimental: as §4

[13] = target: T1, human ErbB3-Fc (R&D Systems); test: ELISA on plate-coated human ErbB3-Fc, detection biotinylated anti-VpreB and streptavidin HRP (Example 52)
Source text: as §3

B3: 3000-C08 (other)
VH: EVQLLESGGGLVQPGGSLRLSCAASGFTFSSYWMHWVRQAPGKGLEWVAVISNNGRYKYYADSVKGRFTISRDNSKNTLYLQMNSLRAEDTAVYYCAKDNEKNLYTWLDYWGQGTLVTVSS
surrogate light: QPVLHQPPAMSSALGTTIRLTCTLRNDHDIGVYSVYWYQQRPGHPPRFLLRYFSQSDKSQGPQVPPRFSGSKDVARNRGYLSISELQPEDEAMYYCAMGARSSVTHVFGSGTQLTVLSQPKATPSVTLFPPSSEELQANKATLVCLMNDFYPGILTVTWKADGTPITQGVEMTTPSKQSNNKYAASSYLSLTPEQWRSRRSYSCQVMHEGSTVEKTVAPAECS
notes: copies: 1 + 1
EC50 [2]: 0.182 nM

B4: 3000-B03 (other)
VH: EVQLLESGGGLVQPGGSLRLSCAASGFTFSNYWMHWVRQAPGKGLEWVALISNNGTYTYYADSVKGRFTISRDNSKNTLYLQMNSLRAEDTAVYYCAKDNEKNLYTWLDYWGQGTLVTVSS
light: QPVLHQPPAMSSALGTTIRLTCTLRNDHDIGVYSVYWYQQRPGHPPRFLLRYFSQSDKSQGPQVPPRFSGSKDVARNRGYLSISELQPEDEAMYYCAMGARSSVTHVFGSGTQLTVLSQPKATPSVTLFPPSSEELQANKATLVCLMNDFYPGILTVTWKADGTPITQGVEMTTPSKQSNNKYAASSYLSLTPEQWRSRRSYSCQVMHEGSTVEKTVAPAECS
notes: copies: 1 + 1
EC50 [2]: 0.179 nM

B7: 2817-C01 surroglobulin (SgG) (other)
VH: EVQLLESGGGLVQPGGSLRLSCAASGFTFSTYAMNWVRQAPGKGLEWVALISSGGSYKYYADSVKGRFTISRDNSKNTLYLQMNSLRAEDTAVYYCAKDNFILLNSWFDYWGQGTLVTVSS
light: QPVLHQPPAMSSALGTTIRLTCTLRNDHDIGVYSVYWYQQRPGHPPRFLLRYFSQSDKSQGPQVPPRFSGSKDVARNRGYLSISELQPEDEAMYYCAMGARSSVTHVFGSGTQLTVLSQPKATPSVTLFPPSSEELQANKATLVCLMNDFYPGILTVTWKADGTPITQGVEMTTPSKQSNNKYAASSYLSLTPEQWRSRRSYSCQVMHEGSTVEKTVAPAECS
notes: also called anti-ErbB3 SgG
EC50 [4]: 0.138 nM
IC50 [5]: 0.99 nM
binding result [6]: no binding (tested: 1000 nM)
EC50 [7]: 0.041 nM
binding result [8]: no binding (tested: 1000 nM)
EC50 (read off the curve) [9]: ~0.2 nM
EC50 (read off the curve) [10]: ~0.3 nM
EC50 [11]: 0.12 nM
EC50 [12]: 0.04 nM
EC50 (read off the curve) [13]: ~0.05 nM

B8: 3000-E07 (other)
VH: EVQLLESGGGLVQPGGSLRLSCAASGFTFSNYWMHWVRQAPGKGLEWVALISGGGGNIYYADSVKGRFTISRDNSKNTLYLQMNSLRAEDTAVYYCAKDNEKNLYTWLDYWGQGTLVTVSS
light: QPVLHQPPAMSSALGTTIRLTCTLRNDHDIGVYSVYWYQQRPGHPPRFLLRYFSQSDKSQGPQVPPRFSGSKDVARNRGYLSISELQPEDEAMYYCAMGARSSVTHVFGSGTQLTVLSQPKATPSVTLFPPSSEELQANKATLVCLMNDFYPGILTVTWKADGTPITQGVEMTTPSKQSNNKYAASSYLSLTPEQWRSRRSYSCQVMHEGSTVEKTVAPAECS
notes: copies: 1 + 1
EC50 [2]: 0.121 nM

Next, values leading:

EC50 [1]: 0.055 nM
B1: 2817-C01 (Parent) (other)
VH: EVQLLESGGGLVQPGGSLRLSCAASGFTFSTYAMNWVRQAPGKGLEWVALISSGGSYKYYADSVKGRFTISRDNSKNTLYLQMNSLRAEDTAVYYCAKDNFILLNSWFDYWGQGTLVTVSS
surrogate light: QPVLHQPPAMSSALGTTIRLTCTLRNDHDIGVYSVYWYQQRPGHPPRFLLRYFSQSDKSQGPQVPPRFSGSKDVARNRGYLSISELQPEDEAMYYCAMGARSSVTHVFGSGTQLTVLSQPKATPSVTLFPPSSEELQANKATLVCLMNDFYPGILTVTWKADGTPITQGVEMTTPSKQSNNKYAASSYLSLTPEQWRSRRSYSCQVMHEGSTVEKTVAPAECS

EC50 [2]: 0.118 nM
B2: 3000-F09 (other)
VH: EVQLLESGGGLVQPGGSLRLSCAASGFTFSSYWMHWVRQAPGKGLEWVALISSSGGITYYADSVKGRFTISRDNSKNTLYLQMNSLRAEDTAVYYCAKDNEKNLYTWLDYWGQGTLVTVSS
surrogate light: QPVLHQPPAMSSALGTTIRLTCTLRNDHDIGVYSVYWYQQRPGHPPRFLLRYFSQSDKSQGPQVPPRFSGSKDVARNRGYLSISELQPEDEAMYYCAMGARSSVTHVFGSGTQLTVLSQPKATPSVTLFPPSSEELQANKATLVCLMNDFYPGILTVTWKADGTPITQGVEMTTPSKQSNNKYAASSYLSLTPEQWRSRRSYSCQVMHEGSTVEKTVAPAECS

EC50 [3]: 0.22 nM
B5: 2716-F05 (Parent) (other)
VH: EVQLLESGGGLVQPGGSLRLSCAASGFTFSNYWMHWVRQAPGKGLEWVALISGGGGNTYYADSVKGRFTISRDNSKNTLYLQMNSLRAEDTAVYYCAKDNEKNLYTWLDYWGQGTLVTVSS
light: QPVLHQPPAMSSALGTTIRLTCTLRNDHDIGVYSVYWYQQRPGHPPRFLLRYFSQSDKSQGPQVPPRFSGSKDVARNRGYLSISELQPEDEAMYYCAMGARSSVTHVFGSGTQLTVLSQPKATPSVTLFPPSSEELQANKATLVCLMNDFYPGILTVTWKADGTPITQGVEMTTPSKQSNNKYAASSYLSLTPEQWRSRRSYSCQVMHEGSTVEKTVAPAECS

EC50 [2]: 0.152 nM
B6: 3000-D07 (other)
VH: EVQLLESGGGLVQPGGSLRLSCAASGFTFSSYWMHWVRQAPGKGLEWVSLISASGSIKYYADSVKGRFTISRDNSKNTLYLQMNSLRAEDTAVYYCAKDNEKNLYTWLDYWGQGTLVTVSS
light: QPVLHQPPAMSSALGTTIRLTCTLRNDHDIGVYSVYWYQQRPGHPPRFLLRYFSQSDKSQGPQVPPRFSGSKDVARNRGYLSISELQPEDEAMYYCAMGARSSVTHVFGSGTQLTVLSQPKATPSVTLFPPSSEELQANKATLVCLMNDFYPGILTVTWKADGTPITQGVEMTTPSKQSNNKYAASSYLSLTPEQWRSRRSYSCQVMHEGSTVEKTVAPAECS
notes: copies: 1 + 1
